Results reported in patent US20220235128A1.
Changes are numbered by the printed parent chain.

B1: QP190191 (antibody, V domains shown)
VH: EVKLVESGGGLVKPGGSLKLSCAASGFTFSNYAMSWVRQTPEKRLEWVASIISGGRTYYLDSEKGRFTISRDNARNNLYLQMSSLRSEDTAMYYCTRIYYGNSFDYWGQGTTLTVSS
VL: DIVMTQSPSSQTVTAGEKVTMSCKSSQSLLNSGNQKNYLTWYQQKPGQPPKLLIYWASTRESGVPDRFTGSGSGTDFTLTISNMQAEDLAVYYCQNDYSYPFTFGSGTKLEIK
B2: QP207208 (antibody, V domains shown)
VH: EVQLQQSGPELVKPGASVKMSCKASGYTFTSYIMHWVKQKPGQGLEWIGYINPYNDGTKYNEKFKGKATLTSDKSSSTVYMELSSLTSEDSAVYCCARLGFTTRNAMDYWGQGTSVTVSS
VL: B1 VL with Q11L, T12S, T14S, S22N, T40A, W56G, N83S, M84V, Y98H
B3: QP201202 (antibody, V domains shown)
VH: EVQLQQSGPELVKPGASVKMSCKASGYTFTNYFVHWVKQKPGQGLEWIGYINPYNDDTKYNEKFKGKATLTSDKSSSTAYMDLSSLTSEDSAVYYCLSLRFFAYWGQGTLVTVSA
VL: B1 VL with Q11L, P49A, T69I, N83H, M84V, Y93F, F102L, S106A, K109N, I112L
B4: QP192193 (antibody, V domains shown)
VH: QVQLQQSGAELVRPGSSVKISCKASGYAFSSYWMNWVKQRPGQGLEWIGQIYPGNGDTTYNGKFKGQATLTADKSSSTVYMQLSSLTSEDSAVYFCARFVKGNAMDYWGQGTSVTVSS
VL: B1 VL with Q11L, K45N, L52M, T75I, T78S, N83S, M84V, V91L, D97A

Target: claudin 18.2 (isoform 2 subtype of CLDN18) (UniProt P56856)
Experiment: FACS, 5 ug/ml antibody on dissociated GA0006 gastric cancer PDX tumor cells, PE anti-human IgG Fc

Ratio of antibody-bound cells [%] | Molecule
85.6 | IMAB362 (Claudiximab) (antibody)
91.5 | B1
91.7 | B2
90 | B3
92.4 | B4
